Numbered stars: 1 amine (or outer) side, 2 acyl side, 3 side chain; on linkers, the order of the positions; unused ones are H or OH. Bridge positions count the residues as written; N and C are the ends. Side chains are listed from the residue outwards. Ends that are not written are not given here. * marks the point of attachment. C20 diacid = O=C(O)CCCCCCCCCCCCCCCCCCC(=O)*; γGlu = O=C(O)[C@H](CCC(=O)[*:2])N[*:1]; AEEA = NCCOCCOCC(=O)O
T1: human calcitonin receptor (human, UniProt P30988 25-474)
T1 construct: whole, on cells; also called hCTR; hCT
T1 sequence (looked up): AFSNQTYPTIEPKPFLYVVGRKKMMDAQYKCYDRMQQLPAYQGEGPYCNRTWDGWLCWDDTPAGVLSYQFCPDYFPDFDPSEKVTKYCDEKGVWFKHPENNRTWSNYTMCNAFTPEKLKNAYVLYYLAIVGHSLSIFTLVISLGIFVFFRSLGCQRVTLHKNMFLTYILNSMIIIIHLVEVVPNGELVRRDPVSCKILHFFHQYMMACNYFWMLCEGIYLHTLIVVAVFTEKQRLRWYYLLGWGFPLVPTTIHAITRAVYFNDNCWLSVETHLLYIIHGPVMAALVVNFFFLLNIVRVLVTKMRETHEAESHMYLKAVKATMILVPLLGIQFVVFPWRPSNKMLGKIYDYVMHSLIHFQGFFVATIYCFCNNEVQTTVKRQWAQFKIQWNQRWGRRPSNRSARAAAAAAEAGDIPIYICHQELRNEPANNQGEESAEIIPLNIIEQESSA

B1: N^ε1-[2-[2-[2-(19-carboxynonadecanoylamino)ethoxy]ethoxy]acetyl]-[Arg17,Pro21,Pro27,His34]-h-amylin (peptide)
peptide: K([AEEA-C20 diacid])CNTATCATQRLANFLRHSSPNFGAIPSSTNVGHNTY-NH2
modifications: disulfide 2-7; N-terminus assumed
SMILES: CC[C@H](C)[C@H](NC(=O)[C@H](C)NC(=O)CNC(=O)[C@H](Cc1ccccc1)NC(=O)[C@H](CC(N)=O)NC(=O)[C@@H]1CCCN1C(=O)[C@H](CO)NC(=O)[C@H](CO)NC(=O)[C@H](Cc1c[nH]cn1)NC(=O)[C@H](CCCNC(=N)N)NC(=O)[C@H](CC(C)C)NC(=O)[C@H](Cc1ccccc1)NC(=O)[C@H](CC(N)=O)NC(=O)[C@H](C)NC(=O)[C@H](CC(C)C)NC(=O)[C@H](CCCNC(=N)N)NC(=O)[C@H](CCC(N)=O)NC(=O)[C@@H](NC(=O)[C@H](C)NC(=O)[C@@H]1CSSC[C@H](NC(=O)[C@@H](N)CCCCNC(=O)COCCOCCNC(=O)CCCCCCCCCCCCCCCCCCC(=O)O)C(=O)N[C@@H](CC(N)=O)C(=O)N[C@@H]([C@@H](C)O)C(=O)N[C@@H](C)C(=O)N[C@@H]([C@@H](C)O)C(=O)N1)[C@@H](C)O)C(=O)N1CCC[C@H]1C(=O)N[C@@H](CO)C(=O)N[C@@H](CO)C(=O)N[C@H](C(=O)N[C@@H](CC(N)=O)C(=O)N[C@H](C(=O)NCC(=O)N[C@@H](Cc1c[nH]cn1)C(=O)N[C@@H](CC(N)=O)C(=O)N[C@H](C(=O)N[C@@H](Cc1ccc(O)cc1)C(N)=O)[C@@H](C)O)C(C)C)[C@@H](C)O
notes: also called compound 91
B2: N^ε1-[(4S)-4-carboxy-4-[[(4S)-4-carboxy-4-(19-carboxynonadecanoylamino)butanoyl]amino]butanoyl]-[Glu14,Arg17,Pro21,Pro31,Pro34,Glu35]-h-amylin (peptide)
peptide: K([γGlu-γGlu-C20 diacid])CNTATCATQRLAEFLRHSSPNFGAILSSTPVGPETY-NH2
modifications: disulfide 2-7
B3: N^ε1-[(4S)-4-carboxy-4-[[(4S)-4-carboxy-4-(19-carboxynonadecanoylamino)butanoyl]amino]butanoyl]-[His14,Arg17,Pro21,Pro27]-h-amylin (peptide)
peptide: K([γGlu-γGlu-C20 diacid])CNTATCATQRLAHFLRHSSPNFGAIPSSTNVGSNTY-NH2
modifications: disulfide 2-7; N-terminus assumed
SMILES: CC[C@H](C)[C@H](NC(=O)[C@H](C)NC(=O)CNC(=O)[C@H](Cc1ccccc1)NC(=O)[C@H](CC(N)=O)NC(=O)[C@@H]1CCCN1C(=O)[C@H](CO)NC(=O)[C@H](CO)NC(=O)[C@H](Cc1c[nH]cn1)NC(=O)[C@H](CCCNC(=N)N)NC(=O)[C@H](CC(C)C)NC(=O)[C@H](Cc1ccccc1)NC(=O)[C@H](Cc1c[nH]cn1)NC(=O)[C@H](C)NC(=O)[C@H](CC(C)C)NC(=O)[C@H](CCCNC(=N)N)NC(=O)[C@H](CCC(N)=O)NC(=O)[C@@H](NC(=O)[C@H](C)NC(=O)[C@@H]1CSSC[C@H](NC(=O)[C@@H](N)CCCCNC(=O)CC[C@H](NC(=O)CC[C@H](NC(=O)CCCCCCCCCCCCCCCCCCC(=O)O)C(=O)O)C(=O)O)C(=O)N[C@@H](CC(N)=O)C(=O)N[C@@H]([C@@H](C)O)C(=O)N[C@@H](C)C(=O)N[C@@H]([C@@H](C)O)C(=O)N1)[C@@H](C)O)C(=O)N1CCC[C@H]1C(=O)N[C@@H](CO)C(=O)N[C@@H](CO)C(=O)N[C@H](C(=O)N[C@@H](CC(N)=O)C(=O)N[C@H](C(=O)NCC(=O)N[C@@H](CO)C(=O)N[C@@H](CC(N)=O)C(=O)N[C@H](C(=O)N[C@@H](Cc1ccc(O)cc1)C(N)=O)[C@@H](C)O)C(C)C)[C@@H](C)O
notes: also called compound 92
B4: N^ε1-[(4S)-4-carboxy-4-[[(4S)-4-carboxy-4-(19-carboxynonadecanoylamino)butanoyl]amino]butanoyl]-[Ser14,Arg17,Pro21,Pro27,Pro34,Glu35]-h-amylin (peptide)
peptide: K([γGlu-γGlu-C20 diacid])CNTATCATQRLASFLRHSSPNFGAIPSSTNVGPETY-NH2
modifications: disulfide 2-7; N-terminus assumed
SMILES: CC[C@H](C)[C@H](NC(=O)[C@H](C)NC(=O)CNC(=O)[C@H](Cc1ccccc1)NC(=O)[C@H](CC(N)=O)NC(=O)[C@@H]1CCCN1C(=O)[C@H](CO)NC(=O)[C@H](CO)NC(=O)[C@H](Cc1c[nH]cn1)NC(=O)[C@H](CCCNC(=N)N)NC(=O)[C@H](CC(C)C)NC(=O)[C@H](Cc1ccccc1)NC(=O)[C@H](CO)NC(=O)[C@H](C)NC(=O)[C@H](CC(C)C)NC(=O)[C@H](CCCNC(=N)N)NC(=O)[C@H](CCC(N)=O)NC(=O)[C@@H](NC(=O)[C@H](C)NC(=O)[C@@H]1CSSC[C@H](NC(=O)[C@@H](N)CCCCNC(=O)CC[C@H](NC(=O)CC[C@H](NC(=O)CCCCCCCCCCCCCCCCCCC(=O)O)C(=O)O)C(=O)O)C(=O)N[C@@H](CC(N)=O)C(=O)N[C@@H]([C@@H](C)O)C(=O)N[C@@H](C)C(=O)N[C@@H]([C@@H](C)O)C(=O)N1)[C@@H](C)O)C(=O)N1CCC[C@H]1C(=O)N[C@@H](CO)C(=O)N[C@@H](CO)C(=O)N[C@H](C(=O)N[C@@H](CC(N)=O)C(=O)N[C@H](C(=O)NCC(=O)N1CCC[C@H]1C(=O)N[C@@H](CCC(=O)O)C(=O)N[C@H](C(=O)N[C@@H](Cc1ccc(O)cc1)C(N)=O)[C@@H](C)O)C(C)C)[C@@H](C)O
notes: also called compound 120
B5: N^ε1-[(4S)-4-carboxy-4-(19-carboxynonadecanoylamino)butanoyl]-[Arg17,Pro21,Pro27,His34]-h-amylin (peptide)
peptide: K([γGlu-C20 diacid])CNTATCATQRLANFLRHSSPNFGAIPSSTNVGHNTY-NH2
modifications: disulfide 2-7; N-terminus assumed
SMILES: CC[C@H](C)[C@H](NC(=O)[C@H](C)NC(=O)CNC(=O)[C@H](Cc1ccccc1)NC(=O)[C@H](CC(N)=O)NC(=O)[C@@H]1CCCN1C(=O)[C@H](CO)NC(=O)[C@H](CO)NC(=O)[C@H](Cc1c[nH]cn1)NC(=O)[C@H](CCCNC(=N)N)NC(=O)[C@H](CC(C)C)NC(=O)[C@H](Cc1ccccc1)NC(=O)[C@H](CC(N)=O)NC(=O)[C@H](C)NC(=O)[C@H](CC(C)C)NC(=O)[C@H](CCCNC(=N)N)NC(=O)[C@H](CCC(N)=O)NC(=O)[C@@H](NC(=O)[C@H](C)NC(=O)[C@@H]1CSSC[C@H](NC(=O)[C@@H](N)CCCCNC(=O)CC[C@H](NC(=O)CCCCCCCCCCCCCCCCCCC(=O)O)C(=O)O)C(=O)N[C@@H](CC(N)=O)C(=O)N[C@@H]([C@@H](C)O)C(=O)N[C@@H](C)C(=O)N[C@@H]([C@@H](C)O)C(=O)N1)[C@@H](C)O)C(=O)N1CCC[C@H]1C(=O)N[C@@H](CO)C(=O)N[C@@H](CO)C(=O)N[C@H](C(=O)N[C@@H](CC(N)=O)C(=O)N[C@H](C(=O)NCC(=O)N[C@@H](Cc1c[nH]cn1)C(=O)N[C@@H](CC(N)=O)C(=O)N[C@H](C(=O)N[C@@H](Cc1ccc(O)cc1)C(N)=O)[C@@H](C)O)C(C)C)[C@@H](C)O
notes: also called compound 77
B6: N^ε1-[2-[2-[2-[[2-[2-[2-[[(4S)-4-carboxy-4-(19-carboxynonadecanoylamino)butanoyl]amino]ethoxy]ethoxy]acetyl]amino]ethoxy]ethoxy]acetyl]-[Arg17,Pro21,Pro27,His34 … (peptide)
peptide: K([AEEA-AEEA-γGlu-C20 diacid])CNTATCATQRLANFLRHSSPNFGAIPSSTNVGHNTY-NH2
modifications: disulfide 2-7; N-terminus assumed
SMILES: CC[C@H](C)[C@H](NC(=O)[C@H](C)NC(=O)CNC(=O)[C@H](Cc1ccccc1)NC(=O)[C@H](CC(N)=O)NC(=O)[C@@H]1CCCN1C(=O)[C@H](CO)NC(=O)[C@H](CO)NC(=O)[C@H](Cc1c[nH]cn1)NC(=O)[C@H](CCCNC(=N)N)NC(=O)[C@H](CC(C)C)NC(=O)[C@H](Cc1ccccc1)NC(=O)[C@H](CC(N)=O)NC(=O)[C@H](C)NC(=O)[C@H](CC(C)C)NC(=O)[C@H](CCCNC(=N)N)NC(=O)[C@H](CCC(N)=O)NC(=O)[C@@H](NC(=O)[C@H](C)NC(=O)[C@@H]1CSSC[C@H](NC(=O)[C@@H](N)CCCCNC(=O)COCCOCCNC(=O)COCCOCCNC(=O)CC[C@H](NC(=O)CCCCCCCCCCCCCCCCCCC(=O)O)C(=O)O)C(=O)N[C@@H](CC(N)=O)C(=O)N[C@@H]([C@@H](C)O)C(=O)N[C@@H](C)C(=O)N[C@@H]([C@@H](C)O)C(=O)N1)[C@@H](C)O)C(=O)N1CCC[C@H]1C(=O)N[C@@H](CO)C(=O)N[C@@H](CO)C(=O)N[C@H](C(=O)N[C@@H](CC(N)=O)C(=O)N[C@H](C(=O)NCC(=O)N[C@@H](Cc1c[nH]cn1)C(=O)N[C@@H](CC(N)=O)C(=O)N[C@H](C(=O)N[C@@H](Cc1ccc(O)cc1)C(N)=O)[C@@H](C)O)C(C)C)[C@@H](C)O
notes: also called compound 97
B7: N^ε1-[(4S)-4-carboxy-4-[[(4S)-4-carboxy-4-(19-carboxynonadecanoylamino)butanoyl]amino]butanoyl]-[Arg17,Pro21,Pro27,His34]-h-amylin (peptide)
peptide: K([γGlu-γGlu-C20 diacid])CNTATCATQRLANFLRHSSPNFGAIPSSTNVGHNTY-NH2
modifications: disulfide 2-7; N-terminus assumed
SMILES: CC[C@H](C)[C@H](NC(=O)[C@H](C)NC(=O)CNC(=O)[C@H](Cc1ccccc1)NC(=O)[C@H](CC(N)=O)NC(=O)[C@@H]1CCCN1C(=O)[C@H](CO)NC(=O)[C@H](CO)NC(=O)[C@H](Cc1c[nH]cn1)NC(=O)[C@H](CCCNC(=N)N)NC(=O)[C@H](CC(C)C)NC(=O)[C@H](Cc1ccccc1)NC(=O)[C@H](CC(N)=O)NC(=O)[C@H](C)NC(=O)[C@H](CC(C)C)NC(=O)[C@H](CCCNC(=N)N)NC(=O)[C@H](CCC(N)=O)NC(=O)[C@@H](NC(=O)[C@H](C)NC(=O)[C@@H]1CSSC[C@H](NC(=O)[C@@H](N)CCCCNC(=O)CC[C@H](NC(=O)CC[C@H](NC(=O)CCCCCCCCCCCCCCCCCCC(=O)O)C(=O)O)C(=O)O)C(=O)N[C@@H](CC(N)=O)C(=O)N[C@@H]([C@@H](C)O)C(=O)N[C@@H](C)C(=O)N[C@@H]([C@@H](C)O)C(=O)N1)[C@@H](C)O)C(=O)N1CCC[C@H]1C(=O)N[C@@H](CO)C(=O)N[C@@H](CO)C(=O)N[C@H](C(=O)N[C@@H](CC(N)=O)C(=O)N[C@H](C(=O)NCC(=O)N[C@@H](Cc1c[nH]cn1)C(=O)N[C@@H](CC(N)=O)C(=O)N[C@H](C(=O)N[C@@H](Cc1ccc(O)cc1)C(N)=O)[C@@H](C)O)C(C)C)[C@@H](C)O
notes: also called compound 86

What follows are binders tested against T1, human calcitonin receptor (assay: SPA radioligand competition (125I-calcitonin), membranes of BHK cells with human calcitonin receptor).
In short: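 BHK hCTR membranes 35 ng/μL + SPA beads 0.05 mg/well; buffer 50 mM Hepes pH 7.4, 1 mM CaCl2, 5 mM MgCl₂, 0.1% OA, 0.02% Tween20. 120 min, 25° C., shaking. Scintillation count; IC50 by one-site binding competition.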

IC50 | Binder
12 nM | B1
1.56 nM | B2
26 nM | B3
3.44 nM | B4
50.7 nM | B5
58.9 nM | B6
133 nM | B7

What follows are binders tested against T1, human calcitonin receptor (assay: ratio of IC50 at human calcitonin receptor to IC50 at human amylin receptor (SPA competition assays)).
In short: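 IC₅₀ values were derived by one-site competition analysis of SPA counts. Cell membranes (35 ng/μL) with SPA beads were incubated with test compounds for 120 min at 25° C in Hepes buffer, pH 7.4, containing CaCl2, MgCl₂, OA and Tween20.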

Ratio hCT/hAmylin binding | Binder
101 | B1
22.6 | B2
145 | B3
45.3 | B4
118 | B5
104 | B6
159 | B7
